T1: MPDZ_3, O75970
T1 sequence (O75970 372-473, limits assumed, looked up): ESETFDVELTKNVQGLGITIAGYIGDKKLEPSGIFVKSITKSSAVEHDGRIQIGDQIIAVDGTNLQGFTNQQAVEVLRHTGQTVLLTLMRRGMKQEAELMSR

T2: PTPN4, P29074
T2 sequence (P29074 512-599, limits assumed, looked up): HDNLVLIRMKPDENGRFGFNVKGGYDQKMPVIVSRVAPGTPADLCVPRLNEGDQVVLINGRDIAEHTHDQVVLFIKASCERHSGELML

T3: PTPN13_5, Q12923
T3 sequence (Q12923 1877-1975, limits assumed, looked up): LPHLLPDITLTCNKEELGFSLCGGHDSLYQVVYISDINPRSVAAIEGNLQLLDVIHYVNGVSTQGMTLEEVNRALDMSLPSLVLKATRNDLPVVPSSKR

T4: PDZRN3_2, Q9UPQ7
T4 sequence (Q9UPQ7 414-513, limits assumed, looked up): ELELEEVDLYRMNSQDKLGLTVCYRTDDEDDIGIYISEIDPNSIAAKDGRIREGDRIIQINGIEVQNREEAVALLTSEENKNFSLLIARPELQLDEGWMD

T5: SHROOM2, Q13796
T5 sequence (Q13796 21-118, limits assumed, looked up): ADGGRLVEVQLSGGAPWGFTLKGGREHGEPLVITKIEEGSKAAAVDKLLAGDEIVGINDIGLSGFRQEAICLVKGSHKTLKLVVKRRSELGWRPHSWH

T6: USH1C_1, Q9Y6N9
T6 sequence (Q9Y6N9 82-179, limits assumed, looked up): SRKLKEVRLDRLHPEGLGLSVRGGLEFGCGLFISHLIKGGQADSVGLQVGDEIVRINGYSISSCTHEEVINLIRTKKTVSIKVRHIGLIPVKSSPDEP

T7: PDZD8, Q8NEN9
T7 sequence (Q8NEN9 361-459, limits assumed, looked up): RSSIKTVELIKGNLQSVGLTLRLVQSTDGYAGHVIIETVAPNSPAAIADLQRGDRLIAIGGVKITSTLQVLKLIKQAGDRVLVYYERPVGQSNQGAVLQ

T8: PDZD2_1, O15018
T8 sequence (O15018 80-192, limits assumed, looked up): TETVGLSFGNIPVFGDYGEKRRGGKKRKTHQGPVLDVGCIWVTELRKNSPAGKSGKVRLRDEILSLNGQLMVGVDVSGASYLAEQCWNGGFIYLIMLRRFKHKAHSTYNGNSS

T9: NHERF3_2, Q5T2W1
T9 sequence (Q5T2W1 129-225, limits assumed, looked up): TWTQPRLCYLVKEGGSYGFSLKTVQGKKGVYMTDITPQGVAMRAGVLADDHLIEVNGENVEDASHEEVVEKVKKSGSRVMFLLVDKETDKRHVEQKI

T10: TJP3_1, O95049
T10 sequence (O95049 6-103, limits assumed, looked up): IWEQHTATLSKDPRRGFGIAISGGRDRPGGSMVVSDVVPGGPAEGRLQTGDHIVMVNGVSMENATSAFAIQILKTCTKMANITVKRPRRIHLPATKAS

T11: MPP1, Q00013
T11 sequence (Q00013 66-162, limits assumed, looked up): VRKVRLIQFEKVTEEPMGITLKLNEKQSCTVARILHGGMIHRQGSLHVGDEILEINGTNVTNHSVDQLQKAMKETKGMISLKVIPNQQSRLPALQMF

T12: PDZD7_1, Q9H5P4
T12 sequence (Q9H5P4 81-178, limits assumed, looked up): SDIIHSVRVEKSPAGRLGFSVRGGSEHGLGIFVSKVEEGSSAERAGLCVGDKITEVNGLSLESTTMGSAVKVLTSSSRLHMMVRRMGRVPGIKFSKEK

T13: PDZD2_5, O15018
T13 sequence (O15018 2617-2716, limits assumed, looked up): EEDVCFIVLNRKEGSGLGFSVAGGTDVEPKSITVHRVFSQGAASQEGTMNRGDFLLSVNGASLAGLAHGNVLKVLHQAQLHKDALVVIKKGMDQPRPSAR


Key:
Assay in all cases: holdup assay
Set-up in all cases: key: below the threshold = too weak to quantify, mostly under pKd 3.1 to 4
Details in all cases: plain residues with an end cap or a label only (N-terminal biotin on a linker: ttds)
MPDZ_3, O75970 = target: T1, MPDZ_3, O75970
MAGI3_4, Q5TCQ9 = target: MAGI3_4, Q5TCQ9
PTPN13_2, Q12923 = target: PTPN13_2, Q12923
MAST3, O60307 = target: MAST3, O60307
DVL2, O14641 = target: DVL2, O14641
NHERF2_1, Q15599 = target: NHERF2_1, Q15599
PTPN4, P29074 = target: T2, PTPN4, P29074
IL16_2, Q14005 = target: IL16_2, Q14005
PTPN13_5, Q12923 = target: T3, PTPN13_5, Q12923
PDZRN3_2, Q9UPQ7 = target: T4, PDZRN3_2, Q9UPQ7
SHROOM2, Q13796 = target: T5, SHROOM2, Q13796
USH1C_1, Q9Y6N9 = target: T6, USH1C_1, Q9Y6N9
PDZD8, Q8NEN9 = target: T7, PDZD8, Q8NEN9
NHERF4_3, Q86UT5 = target: NHERF4_3, Q86UT5
RIMS1, Q86UR5 = target: RIMS1, Q86UR5
MAGIX, Q9H6Y5 = target: MAGIX, Q9H6Y5
PDZD2_1, O15018 = target: T8, PDZD2_1, O15018
NHERF3_2, Q5T2W1 = target: T9, NHERF3_2, Q5T2W1
RGS3, P49796-9 = target: RGS3, P49796-9
TJP3_1, O95049 = target: T10, TJP3_1, O95049
MPP1, Q00013 = target: T11, MPP1, Q00013
PDZD7_1, Q9H5P4 = target: T12, PDZD7_1, Q9H5P4
PDZD2_5, O15018 = target: T13, PDZD2_5, O15018
PARD3B_2, Q8TEW8 = target: PARD3B_2, Q8TEW8
PARD3B_2, Q8TEW8, sequence (Q8TEW8 376-471): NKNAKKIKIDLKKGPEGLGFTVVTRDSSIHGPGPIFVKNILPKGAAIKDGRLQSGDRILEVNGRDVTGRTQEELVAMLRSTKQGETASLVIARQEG

NHERF2_1, Q15599, sequence (Q15599 9-91): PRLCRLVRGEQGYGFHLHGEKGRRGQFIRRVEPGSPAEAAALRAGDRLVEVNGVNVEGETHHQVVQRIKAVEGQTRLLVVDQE
RGS3, P49796-9, sequence (P49796 other isoform, or with tags, fused parts or gaps): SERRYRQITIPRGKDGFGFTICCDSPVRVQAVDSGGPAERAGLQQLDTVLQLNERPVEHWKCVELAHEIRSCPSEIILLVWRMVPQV
PTPN13_2, Q12923, sequence (Q12923 1363-1462): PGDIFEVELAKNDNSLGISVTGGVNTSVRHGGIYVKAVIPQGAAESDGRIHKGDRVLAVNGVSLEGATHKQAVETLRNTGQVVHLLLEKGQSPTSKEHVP
NHERF4_3, Q86UT5, sequence (Q86UT5 325-412): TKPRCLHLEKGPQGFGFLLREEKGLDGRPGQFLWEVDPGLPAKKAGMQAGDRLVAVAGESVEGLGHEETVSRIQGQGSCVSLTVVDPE
MAST3, O60307, sequence (O60307 945-1048): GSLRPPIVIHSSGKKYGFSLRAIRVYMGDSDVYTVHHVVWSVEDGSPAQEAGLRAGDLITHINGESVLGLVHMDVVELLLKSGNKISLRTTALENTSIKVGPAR
DVL2, O14641, sequence (O14641 260-359): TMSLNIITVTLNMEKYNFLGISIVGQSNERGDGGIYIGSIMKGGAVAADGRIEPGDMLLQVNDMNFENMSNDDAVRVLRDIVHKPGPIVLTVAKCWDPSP
IL16_2, Q14005, sequence (Q14005 350-450): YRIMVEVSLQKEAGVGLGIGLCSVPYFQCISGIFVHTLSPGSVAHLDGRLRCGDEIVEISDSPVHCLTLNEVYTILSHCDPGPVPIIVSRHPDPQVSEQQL
RIMS1, Q86UR5, sequence (Q86UR5 584-692): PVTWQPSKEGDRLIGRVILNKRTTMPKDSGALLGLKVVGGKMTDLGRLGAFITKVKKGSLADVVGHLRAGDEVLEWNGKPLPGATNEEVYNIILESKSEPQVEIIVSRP
MAGIX, Q9H6Y5, sequence (Q9H6Y5 118-211): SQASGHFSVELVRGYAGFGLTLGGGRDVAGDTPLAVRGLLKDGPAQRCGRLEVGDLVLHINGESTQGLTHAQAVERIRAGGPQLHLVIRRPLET
MAGI3_4, Q5TCQ9, sequence (Q5TCQ9 716-815): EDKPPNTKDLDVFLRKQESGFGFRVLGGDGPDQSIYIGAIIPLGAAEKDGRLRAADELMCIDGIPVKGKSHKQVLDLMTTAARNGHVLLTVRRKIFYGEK

| Binder | pKd (MPDZ_3, O75970) | pKd (MAGI3_4, Q5TCQ9) | pKd (PTPN13_2, Q12923) | pKd (MAST3, O60307) | pKd (DVL2, O14641) | pKd (NHERF2_1, Q15599) | pKd (PTPN4, P29074) | pKd (IL16_2, Q14005) | pKd (PTPN13_5, Q12923) | pKd (SHROOM2, Q13796) | pKd (PDZD8, Q8NEN9) | pKd (NHERF4_3, Q86UT5) | pKd (MAGIX, Q9H6Y5) | pKd (PDZD2_1, O15018) | pKd (NHERF3_2, Q5T2W1) | pKd (TJP3_1, O95049) | pKd (MPP1, Q00013) | pKd (PDZD7_1, Q9H5P4) | pKd (PDZD2_5, O15018) | pKd (PARD3B_2, Q8TEW8) | also measured |
| --- | --- | --- | --- | --- | --- | --- | --- | --- | --- | --- | --- | --- | --- | --- | --- | --- | --- | --- | --- | --- | --- |
| CLDTSRETDL [KCNA5, P22460] | below the threshold | below the threshold | below the threshold | below the threshold | below the threshold | below the threshold | 4.07 | below the threshold | below the threshold | 4.22 | below the threshold | below the threshold | below the threshold | below the threshold | below the threshold | below the threshold | below the threshold | below the threshold | below the threshold | below the threshold | pKd (PDZRN3_2, Q9UPQ7): below the threshold; pKd (USH1C_1, Q9Y6N9): below the threshold; pKd (RIMS1, Q86UR5): below the threshold; pKd (RGS3, P49796-9): below the threshold |
| QPGTPTRTAV [MAP2K2, P36507] | below the threshold | below the threshold | below the threshold | below the threshold | 4.8 | below the threshold | below the threshold | below the threshold | below the threshold | below the threshold | below the threshold | below the threshold | below the threshold | below the threshold | below the threshold | below the threshold | 4.12 | below the threshold | below the threshold | below the threshold | pKd (PDZRN3_2, Q9UPQ7): below the threshold; pKd (USH1C_1, Q9Y6N9): below the threshold; pKd (RIMS1, Q86UR5): below the threshold; pKd (RGS3, P49796-9): below the threshold |
| RRVRKLPSTTL [RPS6KA1, Q15418] | 3.81 | 3.59 | below the threshold | below the threshold | below the threshold | below the threshold | below the threshold | below the threshold | 3.84 | 3.61 | below the threshold | below the threshold | below the threshold | below the threshold | below the threshold | below the threshold | below the threshold | below the threshold | below the threshold | below the threshold | pKd (PDZRN3_2, Q9UPQ7): below the threshold; pKd (RIMS1, Q86UR5): below the threshold; pKd (RGS3, P49796-9): below the threshold |
| DEDQHTQITKV [PTEN, P60484] | below the threshold | below the threshold | 3.81 | 3.59 | below the threshold | below the threshold | below the threshold | below the threshold | below the threshold | below the threshold | below the threshold | below the threshold | below the threshold | below the threshold | below the threshold | below the threshold | below the threshold | below the threshold | below the threshold | below the threshold | pKd (USH1C_1, Q9Y6N9): below the threshold |
| NYWPGKETQL [SLCO1C1, Q9NYB5] | below the threshold | below the threshold | below the threshold | below the threshold | below the threshold | below the threshold | 4.91 | below the threshold | below the threshold | 4.98 | below the threshold | 4.56 | 5.35 | below the threshold | below the threshold | below the threshold | below the threshold | below the threshold | below the threshold | below the threshold | pKd (PDZRN3_2, Q9UPQ7): below the threshold; pKd (USH1C_1, Q9Y6N9): below the threshold; pKd (RIMS1, Q86UR5): below the threshold; pKd (RGS3, P49796-9): below the threshold |
| TGDTLEKFVEGL [CBP, Q92793] | 4.11 | below the threshold | below the threshold | below the threshold | below the threshold | 3.84 | below the threshold | below the threshold | below the threshold | 3.83 | below the threshold | 3.86 | below the threshold | below the threshold | below the threshold | below the threshold | below the threshold | below the threshold | 3.8 | 3.9 | pKd (USH1C_1, Q9Y6N9): below the threshold |

— publication PMC9482650, “Quantitative fragmentomics allow affinity mapping of interactomes” (Nature Communications, 2022)
